# Changes are numbered by the printed parent chain. Names and notes keep the numbering of the source.
# B1: ROPY (RFP-OP18-YFP) FRET sensor: stathmin/oncoprotein18 (OP18) with sYFP2 donor and mScarlet-I R125I acceptor (natural protein)
# chain: MASSDIQVKELEKRASGQAFELILSPRSKESVPDFPLSPPKKKDLSLEEIQKKLEAAEERRKSHEAEVLKQLAEKREHEKEVLQKAIEENNNFSKMAEEKLTHKMEANKENREAQMAAKLERLREKDKHVEEVRKNKESKDPADETEAD
# B2: ROPY-4E, phospho-mimetic variant of ROPY with four serines mutated into glutamic acids (natural protein)
# chain: B1 chain with S16E, S25E, S38E, S63E
# B3: ROPY-4A, phospho-blocking variant of ROPY with four serines mutated into alanines (natural protein)
# chain: B1 chain with S16A, S25A, S38A, S63A
# Target: free tubulin heterodimers (human (endogenous in HEK293T and HeLa)) (UniProt P68363)
# Chain of UniProt P68363 (P68363 whole entry, chain 1 of 2): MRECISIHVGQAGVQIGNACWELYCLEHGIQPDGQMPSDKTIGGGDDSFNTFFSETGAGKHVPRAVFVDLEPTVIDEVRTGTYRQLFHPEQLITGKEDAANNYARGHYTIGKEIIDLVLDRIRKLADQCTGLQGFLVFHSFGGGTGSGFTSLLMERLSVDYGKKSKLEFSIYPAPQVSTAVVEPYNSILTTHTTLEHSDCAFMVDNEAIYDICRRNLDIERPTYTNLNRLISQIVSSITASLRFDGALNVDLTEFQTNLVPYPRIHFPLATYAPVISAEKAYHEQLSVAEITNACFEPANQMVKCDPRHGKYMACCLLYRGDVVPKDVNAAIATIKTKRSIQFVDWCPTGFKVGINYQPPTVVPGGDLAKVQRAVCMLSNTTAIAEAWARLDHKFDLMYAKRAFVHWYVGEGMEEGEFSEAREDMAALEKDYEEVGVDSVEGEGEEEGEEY
# Chain of UniProt P68363 (P07437 whole entry, chain 2 of 2, further chain): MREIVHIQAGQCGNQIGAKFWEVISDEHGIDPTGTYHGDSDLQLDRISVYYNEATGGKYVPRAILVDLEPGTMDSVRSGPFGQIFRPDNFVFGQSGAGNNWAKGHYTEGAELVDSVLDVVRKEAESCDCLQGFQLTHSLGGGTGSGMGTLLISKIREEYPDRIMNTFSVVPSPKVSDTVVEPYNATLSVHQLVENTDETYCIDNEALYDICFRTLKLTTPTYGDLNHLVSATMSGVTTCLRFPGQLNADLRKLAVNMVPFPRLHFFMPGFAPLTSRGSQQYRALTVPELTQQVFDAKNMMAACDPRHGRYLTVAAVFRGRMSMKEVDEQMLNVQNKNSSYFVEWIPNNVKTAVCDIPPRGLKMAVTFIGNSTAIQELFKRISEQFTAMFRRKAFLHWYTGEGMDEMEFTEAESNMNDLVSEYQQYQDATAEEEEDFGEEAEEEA
row,Binder,"Relative FRET increase (RFP/YFP ratio of the intramolecular sensor) after 10 µM paclitaxel for 1 h, HEK293T cells"
1,B1,1.11
2,B2,1.01
3,B3,1.15

# Reference: PMC7138840
